This passage reports Km results from PMC5821828, “A Genetic Screen for Investigating the Human Lysosomal CystineTransporter, Cystinosin” (Scientific Reports, 2018).

Substitutions are numbered along the chain they refer to. Numbers in names are those of the source.

What is called Km is the concentration of substrate that gives half-maximal velocity.

In series [1] the test system is T1, N[C@@H](CSSC[C@H](N)C(=O)O)C(=O)O.
T1 construct: lacks C-terminal GYDQLN (lysosomal targeting motif; Y363 and L366), untagged, p416TEF (ABE 3513), expressed in S. cerevisiae vps1Δvps17Δ (ABC 5017)
Kind of series: cells, lysate or membranes. It counts as cell-based, Homo sapiens. To be noted: pH 5.5 (MES), 2% glucose, 30 °C, vps1Δvps17Δ yeast, labelled compound.

Substrate in series [2]: N[C@@H](CSSC[C@H](N)C(=O)O)C(=O)O
The series can be described thus: cells, lysate or membranes. It is filed as cell-based, Homo sapiens. Conditions: pH 5.5 (MES), 2% glucose, 30 °C, vps1Δvps17Δ yeast, labelled compound.

For the molecule CTNS-Δgydql (Homo sapiens; DEL362-367), in series [1], the Km was 254.4 ± 61 µM.

B1: CTNS WT (human cystinosin with GYDQL motif) (Homo sapiens) (protein)
chain: SVSLTVPPVVKLENGSSTNVSLTLRPPLNATLVITFEITFRSKNITILELPDEVVVPPGVTNSSFQVTSQNVGQLTVYLHGNHSNQTGPRIRFLVIRSSAISIINQVIGWIYFVAWSISFYPQVIMNWRRKSVIGLSFDFVALNLTGFVAYSVFNIGLLWVPYIKEQFLLKYPNGVNPVNSNDVFFSLHAVVLTLIIIVQCCLYERGGQRVSWPAIGFLVLAWLFAFVTMIVAAVGVTTWLQFLFCFSYIKLAVTLVKYFPQAYMNFYYKSTEGWSIGNVLLDFTGGSFSLLQMFLQSYNNDQWTLIFGDPTKFGLGVFSIVFDVVFFIQHFCLYRKRPGYDQLN
notes: full-length, untagged, plasmid p416TEF (TEF-CTNS, ABE 3006), expressed in S. cerevisiae vps1Δvps17Δ; uptake across plasma membrane
In the case of B1, the Km in series [2] was 400 ± 133 µM.

B2: CTNS-Δgydql (Homo sapiens; G197R) (protein)
chain: SVSLTVPPVVKLENGSSTNVSLTLRPPLNATLVITFEITFRSKNITILELPDEVVVPPGVTNSSFQVTSQNVGQLTVYLHGNHSNQTGPRIRFLVIRSSAISIINQVIGWIYFVAWSISFYPQVIMNWRRKSVIGLSFDFVALNLTGFVAYSVFNIGLLWVPYIKEQFLLKYPNRVNPVNSNDVFFSLHAVVLTLIIIVQCCLYERGGQRVSWPAIGFLVLAWLFAFVTMIVAAVGVTTWLQFLFCFSYIKLAVTLVKYFPQAYMNFYYKSTEGWSIGNVLLDFTGGSFSLLQMFLQSYNNDQWTLIFGDPTKFGLGVFSIVFDVVFFIQHFCLYRKRP
notes: lacks C-terminal GYDQLN (lysosomal targeting motif; Y363 and L366), untagged, p416TEF (ABE 3513), expressed in S. cerevisiae vps1Δvps17Δ (ABC 5017)
As for B2, the Km in series [2] is reported as 97.3 ± 30.9 µM.

B3: CTNS-Δgydql (Homo sapiens; G309C) (protein)
chain: B2 chain with R175G, G287C
notes: as for B2
In the case of B3, the Michaelis constant (Km) in series [2] is on record as 124.8 ± 23.5 µM.

B4: CTNS-Δgydql (Homo sapiens; G131S) (protein)
chain: B2 chain with G109S, R175G
notes: as for B2
As for B4, the Km in series [2] worked out at 130.4 ± 10.9 µM.

B5: CTNS-Δgydql (Homo sapiens; S270T) (protein)
chain: B2 chain with R175G, S248T
notes: as for B2
For the molecule B5, the Km in series [2] came out at 207.2 ± 41.5 µM.
